From patent publication US20200331991A1 come the findings set out here.

Experiment [1] has as its target human α-CGRP P29A (25-37) (human). As to the kind of experiment: Biacore 25 C, Fab over peptide on SA chip; KD ratio to parent 25-37. (In general: SPR reads the build-up and loss of mass on a sensor chip optically.)
For experiment [2], the target named is human α-CGRP N31A (25-37) (human). The description is as above.
For experiment [3], the target named is human α-CGRP S34A (25-37) (human). Described as above.
Experiment [4] addresses human α-CGRP F27A (25-37) (human). The experiment is described as above.
The target of experiment [5] is human α-CGRP V32A (25-37) (human). The experiment is described as above.
Experiment [6] deals with human α-CGRP G33A (25-37) (human). The description is as above.
Experiment [7] deals with human α-CGRP T30A (25-37) (human). The description is as above.
Experiment [8] deals with human α-CGRP V28A (25-37) (human). The experiment is described as above.
In experiment [9] the target is human α-CGRP K35A (19-37) (human). As to the kind of experiment: Biacore 25 C, Fab over peptide on SA chip; KD ratio to parent 19-37.

For the substance anti-CGRP antibody 4901, Fab fragment, the KD (mutant/parent) in experiment [1] came to 0.2; in experiment [2], 0.3; in experiment [3], 0.8; in [4], 0.8; in experiment [5], 0.9; in experiment [6] it was 1.3. Besides, the figures for the KD (mutant/parent) in [7], in experiment [8] and in [9] were 0.2, 0.8 and 0.3, respectively.
